The record followed here is PMC6061855 (Nucleic Acids Research, 2018).

Sequences and labels used below:
B1: Full-length E. coli RppH (RNA pyrophosphohydrolase) (enzyme, UniProt P0A776 1-176, looked up)
chain: MIDDDGYRPNVGIVICNRQGQVMWARRFGQHSWQFPQGGINPGESAEQAMYRELFEEVGLSRKDVRILASTRNWLRYKLPKRLVRWDTKPVCIGQKQKWFLLQLVSGDAEINMQTSSTPEFDGWRWVSYWYPVRQVVSFKRDVYRRVMKEFASVVMSLQENTPKPQNASAYRRKRG

For data set [1], the target named is His6-SUMO-DapF (E. coli DapF with uncleaved N-terminal hexahistidine and SUMO tags) (E. coli) (UniProt P0A6K1). In words: BLI. Background: In BLI a coated tip is dipped into the sample, and binding shifts an interference pattern.
The target of data set [2] is T1, His6-SUMO-DapF (E. coli DapF with uncleaved N-terminal hexahistidine and SUMO tags) (E. coli, UniProt P0A6K1 1-274).
T1 sequence: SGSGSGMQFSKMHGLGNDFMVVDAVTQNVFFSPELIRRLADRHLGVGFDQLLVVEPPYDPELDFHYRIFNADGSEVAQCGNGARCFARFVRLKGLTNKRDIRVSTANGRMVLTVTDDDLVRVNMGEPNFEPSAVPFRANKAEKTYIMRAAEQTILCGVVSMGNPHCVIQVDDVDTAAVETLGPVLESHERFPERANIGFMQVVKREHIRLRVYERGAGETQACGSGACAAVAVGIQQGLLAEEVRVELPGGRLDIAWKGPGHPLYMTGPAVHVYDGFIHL
As to the kind of experiment: cross-linking.

Data set [3] deals with T2, DapFm (E. coli DapF with Y268A and R36A mutations) (E. coli, UniProt P0A6K1 1-274, Y268A | R36A).
T2 sequence: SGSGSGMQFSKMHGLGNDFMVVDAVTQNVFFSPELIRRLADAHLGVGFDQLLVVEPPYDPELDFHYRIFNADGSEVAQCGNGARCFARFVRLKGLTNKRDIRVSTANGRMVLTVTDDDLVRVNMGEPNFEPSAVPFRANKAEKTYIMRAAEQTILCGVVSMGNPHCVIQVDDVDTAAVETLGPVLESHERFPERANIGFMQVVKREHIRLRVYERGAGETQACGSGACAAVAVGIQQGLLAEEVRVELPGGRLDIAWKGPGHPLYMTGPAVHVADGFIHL

For data set [4], the target named is T2, DapFm (E. coli DapF with Y268A and R36A …). In words: BLI.
In a further data set the target is T3, RppHt;DapFm (Escherichia coli;Escherichia coli, UniProt P0A776;P0A6K1 1-158;1-274, |R36A;Y268A).
T3 sequence 1: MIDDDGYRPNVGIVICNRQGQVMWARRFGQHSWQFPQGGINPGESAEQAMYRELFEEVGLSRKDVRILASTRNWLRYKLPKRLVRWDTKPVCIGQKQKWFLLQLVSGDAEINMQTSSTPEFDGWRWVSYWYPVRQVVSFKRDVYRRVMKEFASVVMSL
T3 sequence 2: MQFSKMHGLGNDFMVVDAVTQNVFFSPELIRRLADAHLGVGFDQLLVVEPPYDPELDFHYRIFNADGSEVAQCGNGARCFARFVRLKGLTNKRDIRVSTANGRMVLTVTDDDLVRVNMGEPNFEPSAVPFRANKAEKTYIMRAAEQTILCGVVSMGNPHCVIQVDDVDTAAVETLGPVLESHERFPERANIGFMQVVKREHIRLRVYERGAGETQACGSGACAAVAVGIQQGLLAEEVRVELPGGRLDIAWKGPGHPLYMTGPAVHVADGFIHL
In words: X-ray crystallography.

Data set [5] has as its target EcRppH(1–158)AA, truncated variant of E. coli RppH (E. coli) (UniProt P0A776). As to the kind of experiment: BLI.
Data set [6] concerns the target T4, RppH^R134A (E. coli RppH mutant), His6-SUMO-tagged (E. coli, UniProt P0A776 1-176, R134A).
T4 sequence (looked up): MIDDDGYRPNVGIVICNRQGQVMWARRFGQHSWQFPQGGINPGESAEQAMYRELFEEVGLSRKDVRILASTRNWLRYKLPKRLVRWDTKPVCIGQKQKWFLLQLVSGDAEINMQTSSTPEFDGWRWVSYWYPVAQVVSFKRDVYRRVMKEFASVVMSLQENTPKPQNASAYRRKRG
As to the kind of experiment: BLI.

For data set [7], the target named is B1. In words: BLI.
The target in data set [8] is T5, His6-SUMO-tagged E. coli RppH (E. coli, UniProt P0A776 1-176).
T5 sequence (looked up): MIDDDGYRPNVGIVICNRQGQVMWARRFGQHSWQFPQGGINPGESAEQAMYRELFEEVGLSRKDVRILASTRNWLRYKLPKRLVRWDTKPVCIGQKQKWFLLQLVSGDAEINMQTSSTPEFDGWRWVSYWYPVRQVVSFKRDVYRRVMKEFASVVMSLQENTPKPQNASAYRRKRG
In words: BLI.

One may read the Kd as the equilibrium constant for the complex coming apart. Lower therefore signals higher affinity. Molecule “RppH^W130A,R145A (E. coli RppH double mutant) (from UniProt P0A776 1-176) (enzyme)” registered an equilibrium dissociation constant (Kd) in data set [1] of 1900 nM.
Usually stoichiometry N stands for a count of units in the complex or per binding partner. Take B1: the “stoichiometry N” value was 1 RppH per DapF (printed as 2:2) in data set [2] and 1 RppH per DapFm (printed as 1:1) in data set [3]. In data set [4], this molecule had a Kd of 7.5 nM.

B2: ppcpAGU (ssRNA)
RNA: AGU
modifications: 5' triphosphate analog ppcpA (non-natural bridging group, from ppcpA starter nucleotide)
With B2, the binding result in the data set with RppHt;DapFm was “binds”.

B3: DapFm (E. coli DapF with Y268A and R36A mutations) (enzyme)
chain: SGSGSGMQFSKMHGLGNDFMVVDAVTQNVFFSPELIRRLADAHLGVGFDQLLVVEPPYDPELDFHYRIFNADGSEVAQCGNGARCFARFVRLKGLTNKRDIRVSTANGRMVLTVTDDDLVRVNMGEPNFEPSAVPFRANKAEKTYIMRAAEQTILCGVVSMGNPHCVIQVDDVDTAAVETLGPVLESHERFPERANIGFMQVVKREHIRLRVYERGAGETQACGSGACAAVAVGIQQGLLAEEVRVELPGGRLDIAWKGPGHPLYMTGPAVHVADGFIHL
In turn, B3 registered a Kd in data set [5] of 6 nM.

B4: E. coli DapF (diaminopimelate epimerase) bearing six additional residues (SGSGSG) at the amino terminus (enzyme)
chain: SGSGSGMQFSKMHGLGNDFMVVDAVTQNVFFSPELIRRLADRHLGVGFDQLLVVEPPYDPELDFHYRIFNADGSEVAQCGNGARCFARFVRLKGLTNKRDIRVSTANGRMVLTVTDDDLVRVNMGEPNFEPSAVPFRANKAEKTYIMRAAEQTILCGVVSMGNPHCVIQVDDVDTAAVETLGPVLESHERFPERANIGFMQVVKREHIRLRVYERGAGETQACGSGACAAVAVGIQQGLLAEEVRVELPGGRLDIAWKGPGHPLYMTGPAVHVYDGFIHL
For B4, the “fold reduction of the binding affinity against wild-type RppH” value in data set [6] turned out to be 2 fold.

B5: DapF V19S-F58S (E. coli DapF double mutant) (enzyme)
chain: SGSGSGMQFSKMHGLGNDFMVVDASTQNVFFSPELIRRLADRHLGVGFDQLLVVEPPYDPELDSHYRIFNADGSEVAQCGNGARCFARFVRLKGLTNKRDIRVSTANGRMVLTVTDDDLVRVNMGEPNFEPSAVPFRANKAEKTYIMRAAEQTILCGVVSMGNPHCVIQVDDVDTAAVETLGPVLESHERFPERANIGFMQVVKREHIRLRVYERGAGETQACGSGACAAVAVGIQQGLLAEEVRVELPGGRLDIAWKGPGHPLYMTGPAVHVYDGFIHL
For B5, the “fold reduction of the binding affinity against wild-type DapF” value (“fold reduction … against wild-type DapF” for short) in data set [7] came to 59 fold.

B6: DapF^V19S,F58S,L89S (E. coli DapF triple mutant) (enzyme)
chain: SGSGSGMQFSKMHGLGNDFMVVDASTQNVFFSPELIRRLADRHLGVGFDQLLVVEPPYDPELDSHYRIFNADGSEVAQCGNGARCFARFVRLKGSTNKRDIRVSTANGRMVLTVTDDDLVRVNMGEPNFEPSAVPFRANKAEKTYIMRAAEQTILCGVVSMGNPHCVIQVDDVDTAAVETLGPVLESHERFPERANIGFMQVVKREHIRLRVYERGAGETQACGSGACAAVAVGIQQGLLAEEVRVELPGGRLDIAWKGPGHPLYMTGPAVHVYDGFIHL
Take B6: in [8], the “fold decrease of binding against wild-type DapF” value is around 5800 fold.

B7: DapF V19S-L89S (E. coli DapF double mutant) (enzyme)
chain: SGSGSGMQFSKMHGLGNDFMVVDASTQNVFFSPELIRRLADRHLGVGFDQLLVVEPPYDPELDFHYRIFNADGSEVAQCGNGARCFARFVRLKGSTNKRDIRVSTANGRMVLTVTDDDLVRVNMGEPNFEPSAVPFRANKAEKTYIMRAAEQTILCGVVSMGNPHCVIQVDDVDTAAVETLGPVLESHERFPERANIGFMQVVKREHIRLRVYERGAGETQACGSGACAAVAVGIQQGLLAEEVRVELPGGRLDIAWKGPGHPLYMTGPAVHVYDGFIHL
For the molecule B7, the “fold reduction … against wild-type DapF” value in data set [7] is 77 fold.

B8: DapF F58S-L89S (E. coli DapF double mutant) (enzyme)
chain: SGSGSGMQFSKMHGLGNDFMVVDAVTQNVFFSPELIRRLADRHLGVGFDQLLVVEPPYDPELDSHYRIFNADGSEVAQCGNGARCFARFVRLKGSTNKRDIRVSTANGRMVLTVTDDDLVRVNMGEPNFEPSAVPFRANKAEKTYIMRAAEQTILCGVVSMGNPHCVIQVDDVDTAAVETLGPVLESHERFPERANIGFMQVVKREHIRLRVYERGAGETQACGSGACAAVAVGIQQGLLAEEVRVELPGGRLDIAWKGPGHPLYMTGPAVHVYDGFIHL
With B8, the “fold reduction … against wild-type DapF” value in data set [7] stood at 290 fold.
